Reference: patent publication US11370846B2, “Compositions and methods to regulate Renalase in the treatment of cancer” (Yale University, priority 2014, dated 2022)

How the values were obtained:
Type in all cases: cell-based, human
[1] = test system: STAT3; assay: STAT3 phosphorylation in Panc1 cells by western blot; conditions: addition of RNLS
Text: FIG. 27A through FIG. 27E are a series of images and charts showing the interaction between RNLS and STAT3, and the mechanistic model of inhibition by m28-RNLS. FIG. 27A is an image showing activation of STAT3 by RNLS in Panc1 cells; Panc1 cells in culture treated with either BSA or RNLS, and STAT3 phosphorylation assessed by western blot; p-Ser^727-STAT3: phosphorylation at serine 727, p-Y^705-STAT3: phosphorylation at tyrosine 705; representative study. FIG. 27B is a chart depicting the quantification of STAT3 phosphorylation with RNLS; signals normalized to total STAT3; n=3, *=P<0.05. […] FIG. 27D is a chart showing the quantification of STAT3 phosphorylation with m28-RNLS; signals normalized to GAPDH loading control; n=3, *=P<0.05. FIG. 27E depicts the proposed mechanistic model for antitumor activity of m28-RNLS.

[2] = test system: MiaPaCa2 cells; assay: FACS cell cycle analysis of MiaPaCa2 cells treated with rRNLS; conditions: 30 μg/ml, compared to BSA
Experimental: For cell cycle analysis, cultured cells were dissociated using 10 mM EDTA, fixed with ice-cold 70% ethanol, digested with RNAse A, and stained with propidium iodide. Propidium staining was detected using a BD FACSCalibur flow cytometer (BD Biosciences, San Jose, Calif., USA), and analyzed using CellQuest software.

[3] = test system: STAT3; assay: STAT phosphorylation in HK-2 cells treated with RNLS
[4] = test system: melanoma cells (A375.S2, MeWo, SkMe15, and SkMe128); assay: Survival of serum-starved melanoma cells with rRNLS, WST-1; conditions: 30 ug/ml, 72 hrs, compared to BSA
Experimental: FIG. 18A and FIG. 18B are two charts showing that RNLS overexpression favors cancer cell survival.
For additional studies, cell viability was determined using WST-1 reagent (Roche Diagnostics, Indianapolis, Ind., USA) according to the manufacturers' instruction. Absorbances were read using a microplate reader (Power Waves XS, BioTek Instruments, Winooski, Vt., USA).

B1: rRNLS: Recombinant human RNLS (renalase) (protein)
chain: ALLRRQTSGPLYLAVWDKAEDSGGRMTTACSPHNPQCTADLGAQYITCTPHYAKKHQRFYDELLAYGVLRPLSSPIEGMVMKEGDCNFVAPQGISSIIKHYLKESGAEVYFRHRVTQINLRDDKWEVSKQTGSPEQFDLIVLTMPVPEILQLQGDITTLISECQRQQLEAVSYSSRYALGLFYEAGTKIDVPWAGQYITSNPCIRFVSIDNKKRNIESSEIGPSLVIHTTVPFGVTYLEHSIEDVQELVFQQLENILPGLPQPIATKCQKWRHSQVTNAAANCPGQMTLHHKPFLACGGDGFTQSNFDGCITSALCVLEALKNYI
- phosphorylated STAT3 (p-Ser727-STAT3 and p-Y705-STAT3) in Panc1 [1]: rapid increase
- cell cycle progression [2]: no effect
- increase in STAT3 phosphorylation at serine 727 (p-Ser727-STAT3) [3]: 2 fold
- increase in STAT3 phosphorylation at tyrosine 705 (p-Y705-STAT3) [3]: 4 fold
- survival of serum-starved melanoma cells [4]: markedly increased the survival
